The results in this text go back to paper PMC3392456.

Read-outs that look alike come from different tables or passages of the source.

Assay [1] concerns the target S. pombe Mre11 catalytic domain, SpMre11_(15–413) (S. pombe). The assay is described as follows: crystal structure.
Assay [2] shares this target. The assay is described as follows: crystal structure. The source holds these as a separate data set.
Assay [3] concerns the target SpMre11^cd R85A (S. pombe).
The target in assay [4] is S. pombe Mre11 catalytic domain, SpMre11_(15–413) (S. pombe). Description: crystal structure. This is another data set of the same source.

Broadly, the stoichiometry N is a count of units in the complex or per binding partner. Regarding “S. pombe Mre11 catalytic domain, SpMre11_(15–413) (domain or fragment)”, the stoichiometry N in assay [1] and in assay [2] was 2 in each case.
SpMre11^cd R85A (domain or fragment) came in with a stoichiometry N in assay [3] of 2.

B1: S. pombe Nbs1 Mre11 interacting region, residues 474–531 (domain or fragment)
chain: ESEDDKAFEENRRLRNLGSVEYIRIMSSEKSNANSRHTSKYYSGRKNFKKFQKKASQK
B1 displayed a stoichiometry N (Nbs1 per Mre11 (2:2)) in assay [4] of 1.
